Conditions: Equus caballus, CD; for denaturant m value / denaturant midpoint (higher = more stable) / unfolding free energy: 22 °C, GdnHCl; for Tm / change of melting temperature, mutant - wild type (higher = more stable) / unfolding enthalpy (calorimetric): Thermal, transition: 2, reversible: yes (>83%)
[1] = pH 4.5, sodium acetate buffer 10 mM, NaCl 100 mM, structure 1HRC
[2] = pH 7.4, sodium phosphate buffer 100 mM, structure 1HRC
[3] = pH 4.5, sodium acetate buffer 10 mM, NaCl 100 mM
[4] = pH 7.4, sodium phosphate buffer 100 mM

Cytochrome c wild type, P00004, sequence (P00004 whole entry): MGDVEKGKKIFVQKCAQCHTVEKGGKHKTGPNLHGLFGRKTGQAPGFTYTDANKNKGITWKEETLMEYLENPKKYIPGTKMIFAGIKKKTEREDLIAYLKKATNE
Cytochrome c Y68R|M81A, P00004 Y68R M81A, sequence (P00004 whole entry Y68R/M81A): as the sequence (P00004 whole entry) above, with Y68R, M81A counted along it
Cytochrome c T50V, P00004, sequence (P00004 whole entry T50V): as the sequence (P00004 whole entry) above, with T50V counted along it
Cytochrome c M81A, P00004, sequence (P00004 whole entry M81A): as the sequence (P00004 whole entry) above, with M81A counted along it

In the case of Cytochrome c M81A, P00004, the denaturant m value [1] is reported as 2.77 kcal/mol/M, the “denaturant midpoint (higher = more stable)” value (“denaturant midpoint” for short) [1] is reported as 2.6 M and the unfolding free energy [1] is reported as 2.77 kcal/mol. The Tm [1] was 76 °C, the “change of melting temperature, mutant - wild type (higher = more stable)” value (from here on “change of melting temperature, mutant”) [1] was 5 °C and the “unfolding enthalpy (calorimetric)” value [1] was 83.4 kcal/mol. For the same substance, the denaturant m value [2] was 2.46 kcal/mol/M, the “denaturant midpoint” value [2] was 2.71 M and the unfolding free energy [2] was 6.67 kcal/mol. For the same substance, the Tm [2] was 84 °C, the “change of melting temperature, mutant” value [2] was -0.1 °C and the “unfolding enthalpy (calorimetric)” value [2] was 85.3 kcal/mol.
With Cytochrome c T50V, P00004 the denaturant m value [1] was 1.6 kcal/mol/M, the “denaturant midpoint” value [1] was 2.5 M and the unfolding free energy [1] was 3.99 kcal/mol. For the same substance, the Tm [1] was 72 °C, the “change of melting temperature, mutant” value [1] was 1 °C and the “unfolding enthalpy (calorimetric)” value [1] was 82.5 kcal/mol. The denaturant m value [2] was 2.68 kcal/mol/M, the “denaturant midpoint” value [2] was 2.7 M and the unfolding free energy [2] was 7.22 kcal/mol. For the same substance, the Tm [2] was 86 °C, the “change of melting temperature, mutant” value [2] was 1.9 °C and the “unfolding enthalpy (calorimetric)” value [2] was 83.9 kcal/mol.
With “Cytochrome c Y68R|M81A, P00004 Y68R M81A” the denaturant m value [1] was 2.29 kcal/mol/M, the “denaturant midpoint” value [1] was 1.4 M and the unfolding free energy [1] was 3.2 kcal/mol. The Tm [1] was 55 °C, the “change of melting temperature, mutant” value [1] was -16 °C and the “unfolding enthalpy (calorimetric)” value [1] was 78.4 kcal/mol. The denaturant m value [2] was 2.46 kcal/mol/M, the “denaturant midpoint” value [2] was 1.7 M and the unfolding free energy [2] was 4.18 kcal/mol. The Tm [2] was 71 °C, the “change of melting temperature, mutant” value [2] was -13.1 °C and the “unfolding enthalpy (calorimetric)” value [2] was 82.2 kcal/mol.
In the case of Cytochrome c wild type, P00004, the denaturant m value [3] is reported as 2.34 kcal/mol/M, the “denaturant midpoint” value [3] is reported as 2.6 M and the unfolding free energy [3] is reported as 6 kcal/mol. For the same substance, the Tm [3] was 71 °C, the “unfolding enthalpy (calorimetric)” value [3] was 49 kcal/mol and the denaturant m value [4] was 2.75 kcal/mol/M. The “denaturant midpoint” value [4] was 2.7 M, the unfolding free energy [4] was 7.43 kcal/mol and the Tm [4] was 84.1 °C. The “unfolding enthalpy (calorimetric)” value [4] was 86 kcal/mol.

Source: FireProtDB (doi:10.1021/acs.biochem.6b01187)
